Source: article PMC8160069, “Ethacrynic acid targets GSTM1 to ameliorate obesity by promoting browning of white adipocytes” (Protein & Cell, 2020)

Target: the molecule itself
Assay: crystal structure; co-crystal structure of celastrol with mouse GSTP1

B1: mouse GSTP1 (enzyme, UniProt P19157 1-210, looked up)
chain: MPPYTIVYFPVRGRCEAMRMLLADQGQSWKEEVVTIDTWMQGLLKPTCLYGQLPKFEDGDLTLYQSNAILRHLGRSLGLYGKNQREAAQMDMVNDGVEDLRGKYVTLIYTNYENGKNDYVKALPGHLKPFETLLSQNQGGKAFIVGDQISFADYNLLDLLLIHQVLAPGCLDNFPLLSAYVARLSARPKIKAFLSSPEHVNRPINGNGKQ
notes: GSTP1 (glutathione S-transferase pi 1), mouse; co-crystallised with celastrol; also called GST pi
- binding result: binds
